T1: recombinant human DLL3 (human, UniProt Q9NYJ7 27-492)
T1 sequence: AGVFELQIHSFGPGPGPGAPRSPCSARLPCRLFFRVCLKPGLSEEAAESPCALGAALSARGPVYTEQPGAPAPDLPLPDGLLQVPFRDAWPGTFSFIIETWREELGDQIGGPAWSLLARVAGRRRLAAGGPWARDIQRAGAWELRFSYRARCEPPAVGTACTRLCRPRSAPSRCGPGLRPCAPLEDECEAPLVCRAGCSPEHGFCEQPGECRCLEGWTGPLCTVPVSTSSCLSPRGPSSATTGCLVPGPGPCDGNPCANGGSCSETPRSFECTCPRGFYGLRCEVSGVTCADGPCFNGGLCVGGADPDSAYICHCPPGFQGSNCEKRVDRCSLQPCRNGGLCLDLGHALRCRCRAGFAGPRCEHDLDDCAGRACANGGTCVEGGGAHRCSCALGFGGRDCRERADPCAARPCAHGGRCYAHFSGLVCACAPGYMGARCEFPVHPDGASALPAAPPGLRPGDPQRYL

T2: Cynomolgus DLL3 ECD with Myc-tag on N-terminus and His-tag on C-terminus (cynomolgus)
T2 construct: also called Myc-cynoDLL3-His; Cyno DLL3
T2 chain: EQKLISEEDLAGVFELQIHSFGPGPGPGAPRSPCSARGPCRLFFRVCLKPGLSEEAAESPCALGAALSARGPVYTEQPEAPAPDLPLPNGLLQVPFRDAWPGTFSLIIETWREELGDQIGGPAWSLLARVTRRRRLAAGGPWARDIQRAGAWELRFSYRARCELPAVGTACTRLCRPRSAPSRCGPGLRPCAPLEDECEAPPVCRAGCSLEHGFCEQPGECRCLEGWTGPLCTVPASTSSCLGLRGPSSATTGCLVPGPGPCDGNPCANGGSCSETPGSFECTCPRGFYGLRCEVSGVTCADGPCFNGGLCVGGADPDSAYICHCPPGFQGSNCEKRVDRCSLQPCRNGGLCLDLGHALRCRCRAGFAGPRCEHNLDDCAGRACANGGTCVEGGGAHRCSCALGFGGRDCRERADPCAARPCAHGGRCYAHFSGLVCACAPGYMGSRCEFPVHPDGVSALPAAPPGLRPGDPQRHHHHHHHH


Key:
recombinant human DLL3 = target: T1, recombinant human DLL3; assay: SPR Biacore 8K, 37 C, pH 7.4; bispecific captured on anti-human Fc, DLL3 as analyte, 1:1 model
Experimental: (§1) Binding affinity of anti-DLL3 arm in the anti-DLL3/CD3 antibodies to human or cynomolgus DLL3 at pH 7.4 were assessed at 37 degrees C. using Biacore 8K instrument (GE Healthcare). Anti-human Fc (GE Healthcare) was immobilized onto all flow cells of a CM4 sensor chip using amine coupling kit (GE Healthcare). The bispecific antibodies were captured onto the anti-Fc sensor surfaces, and then recombinant human or cynomolgus DLL3 was injected over the flow cell. All antibodies and analytes were prepared in ACES pH 7.4 containing 20 mM ACES, 150 mM NaCl, 0.05% Tween 20, 0.005% NaN₃. Sensor surface was regenerated each cycle with 3M MgCl₂.

[1] = target: T2, Cynomolgus DLL3 ECD with Myc-tag on …; assay: as above
Experimental: as §1

[2] = target: recombinant human CD3eg protein (CD3 epsilon-gamma, heterodimer of CD3 epsilon and CD3 gamma) (human, UniProt P07766 23-126; P09693 23-116); assay: SPR Biacore 8K, 37 C, pH 7.4; bispecific captured on anti-human Fc, human CD3eg as analyte, 1:1 model
Experimental: as §1, with “of the anti-CD3” for “of anti-DLL3”, “arm of” for “arm in”, “anti-DLL3/CD3 bispecific” for “anti-DLL3/CD3”, “to CD3” for “to human or cynomolgus DLL3”, “7.4 was” for “7.4 were”, “human CD3eg proteins (CD3 epsilon-gamma, heterodimer of CD3 epsilon and CD3 gamma)” for “human or cynomolgus DLL3”

Chain of recombinant human CD3eg protein (CD3 epsilon-gamma, heterodimer of CD3 epsilon and CD3 gamma) (P07766 23-126 limits assumed, chain 1 of 2): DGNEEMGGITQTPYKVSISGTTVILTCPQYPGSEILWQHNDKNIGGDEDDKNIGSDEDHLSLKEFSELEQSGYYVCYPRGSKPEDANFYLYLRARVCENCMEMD
Chain of recombinant human CD3eg protein (CD3 epsilon-gamma, heterodimer of CD3 epsilon and CD3 gamma) (P09693 23-116 limits assumed, chain 2 of 2): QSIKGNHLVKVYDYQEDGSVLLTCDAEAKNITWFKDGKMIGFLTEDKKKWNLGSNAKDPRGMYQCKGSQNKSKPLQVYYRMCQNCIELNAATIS

Binder	Kd (recombinant human DLL3)	koff (recombinant human DLL3)	kon (recombinant human DLL3)	Kd [1]	koff [1]	kon [1]	Kd [2]	koff [2]	kon [2]
D30316AE03/AN121 (bispecific antibody, V domains shown, IgG-type anti-DLL3/CD3 bispecific made by Fab arm exchange) VH 1: EVQLVESGGGLVQPGGSLRLSCAASGFTFSNYGVSWVRQAPGQGLEWMGYIDIAFGRTYYASWVTGRITINPDTSKNQFSLQLNSVTPEDTAVYYCARVALVVAGVAYYGMDVWGQGTLVTVSS VL 1: DIVMTQSPDSLAVSLGERATINCQASQNIYSYLSWYQQKPGKAPKLLIYRTSTLASGVPDRFSGSGSGTDFTLKISRVEAEDVGVYYCQSYYYSSGSSYGAFAFGQGTKVEIK VH 2: QVQLVESGGGLVQPGRSLRLSCAASGFTFSNAWMHWVRQAPGKGLEWVAQIKDRANSYNTYYAESVKGRFTISRDDSKNSIYLQMNSLKTEDTAVYYCRYVHYTTYAGSSFSYGVDAWGQGTTVTVSS VL 2: DIVMTQSPLSLPVTPGEPASISCRSSQPLVHSNRNTYLHWYQQKPGQAPRLLIYKVSNRFSGVPDRFSGSGSGTDFTLKISRVEAEDVGVYYCGQGTQVPYTFGQGTKLEIK	–	–	–	–	–	–	7.55 nM	0.000744 s⁻¹	98600 M⁻¹ s⁻¹
D30841AE08/TR01 (bispecific antibody, V domains shown, IgG-type anti-DLL3/CD3 bispecific made by Fab arm exchange) VH 1: QVTLRESGPALVKPTQTLTLTCTFSGFSLSSSYDMGWVRQAPGQGLEWMGTIYTGDYSTDYASWAKGRVTISVDTSKNQFSLKLSSVTAADTAVYYCARHTGYGYFGLWGQGTLVTVSS VL 1: DIQLTQSPSFLSASVGDRVTITCQSTESVYGSDWLSWYQQKPGQPPKLLIYQASNLEIGVPSRFSGSGSGTDFTLTINSLEAEDAATYYCQGYYSGYIYAFGGGTKVEIK VH 2: QVQLVESGGGVVQPGGSLRLSCAASGFTFSNAWMHWVRQAPGKGLEWVAQIKDKSQNYATYVAESVKGRFTISRADSKNSIYLQMNSLKTEDTAVYYCRYVHYAAGYGVDIWGQGTTVTVSS VL 2: DIVMTQSPLSLPVTPGEPASISCRSSQPLVHSNRNTYLHWYQQKPGQAPRLLIYKVSNRFSGVPDRFSGSGSGTDFTLKISRVEAEDVGVYYCGQGTQVPYTFGQGTKLEIK	0.0872 nM	0.000215 s⁻¹	2.47e+06 M⁻¹ s⁻¹	0.0737 nM	0.000191 s⁻¹	2.59e+06 M⁻¹ s⁻¹	–	–	–
D30841AE11/TR01 (bispecific antibody, V domains shown, IgG-type anti-DLL3/CD3 bispecific made by Fab arm exchange) VH 1: QVTLRESGPALVKPTQTLTLTCTFSGFSLSSSYDMGWVRQAPGQGLEWMGTIYTGDYSTDYASWAKGRVTISVDTSKNQFSLKLSSVTAADTAVYYCARHTGYGYFGLWGQGTLVTVSS VL 1: DIQLTQSPSFLSASVGDRVTITCQSTESVYGSDWLSWYQQKPGQPPKLLIYQASNLEIGVPSRFSGSGSGTDFTLTINSLEAEDAATYYCQGYYSGYSYAFGGGTKVEIK VH 2: QVQLVESGGGVVQPGGSLRLSCAASGFTFSNAWMHWVRQAPGKGLEWVAQIKDKSQNYATYVAESVKGRFTISRADSKNSIYLQMNSLKTEDTAVYYCRYVHYAAGYGVDIWGQGTTVTVSS VL 2: DIVMTQSPLSLPVTPGEPASISCRSSQPLVHSNRNTYLHWYQQKPGQAPRLLIYKVSNRFSGVPDRFSGSGSGTDFTLKISRVEAEDVGVYYCGQGTQVPYTFGQGTKLEIK	0.172 nM	0.000325 s⁻¹	1.88e+06 M⁻¹ s⁻¹	0.142 nM	0.000265 s⁻¹	1.86e+06 M⁻¹ s⁻¹	–	–	–
D30316AE03/AN395 (bispecific antibody, V domains shown, IgG-type anti-DLL3/CD3 bispecific made by Fab arm exchange) VH 1: EVQLVESGGGLVQPGGSLRLSCAASGFTFSNYGVSWVRQAPGQGLEWMGYIDIAFGRTYYASWVTGRITINPDTSKNQFSLQLNSVTPEDTAVYYCARVALVVAGVAYYGMDVWGQGTLVTVSS VL 1: DIVMTQSPDSLAVSLGERATINCQASQNIYSYLSWYQQKPGKAPKLLIYRTSTLASGVPDRFSGSGSGTDFTLKISRVEAEDVGVYYCQSYYYSSGSSYGAFAFGQGTKVEIK VH 2: QVQLVESGGGLVQPGRSLRLSCAASGFTFSNAWMHWVRQAPGKGLEWVAQIKDKANGYNAYYAPSVKGRFTISRDDSKNSIYLQMNSLKTEDTAVYYCRYVHYTTFGFGLSYGGVDAWGQGTTVTVSS VL 2: DIVMTQSPLSLPVTPGEPASISCRSSQPLVHSNRNTYLHWYQQKPGQAPRLLIYKVSNRFSGVPDRFSGSGSGTDFTLKISRVEAEDVGVYYCGQGTQVPYTFGQGTKLEIK	–	–	–	–	–	–	30.7 nM	0.00743 s⁻¹	242000 M⁻¹ s⁻¹

Other lines, results leading:

Kd (recombinant human DLL3)	koff (recombinant human DLL3)	kon (recombinant human DLL3)	Kd [1]	koff [1]	kon [1]	Kd [2]	koff [2]	kon [2]	Binder
0.0353 nM	8.72e-05 s⁻¹	2.47e+06 M⁻¹ s⁻¹	0.0199 nM	4.96e-05 s⁻¹	2.49e+06 M⁻¹ s⁻¹	–	–	–	DLA0316/TR01 (bispecific antibody, V domains shown, IgG-type anti-DLL3/CD3 bispecific made by Fab arm exchange) VH 1: QEQLVESGGGLVQPGGSLKLSCKVSGFDFSNYGVSWVRQAPGKGLEWIGYIDPAFGRTYYASWVNGRFTISSHNAQNTLYLQLNSLTAADTATYFCVRVALVVAGVAYYGMDVWGPGTLVTVSS VL 1: ADVVMTQTPASVEAAVGGTVTINCQASQNIYSYLSWYQQKPGQPPKLLIYRTSTLASGVPSRFKGSGSGTQFTLTISDLECADAATYYCQSYYYSSGSSYGAFAFGGGTEVVVK VH 2: QVQLVESGGGVVQPGGSLRLSCAASGFTFSNAWMHWVRQAPGKGLEWVAQIKDKSQNYATYVAESVKGRFTISRADSKNSIYLQMNSLKTEDTAVYYCRYVHYAAGYGVDIWGQGTTVTVSS VL 2: DIVMTQSPLSLPVTPGEPASISCRSSQPLVHSNRNTYLHWYQQKPGQAPRLLIYKVSNRFSGVPDRFSGSGSGTDFTLKISRVEAEDVGVYYCGQGTQVPYTFGQGTKLEIK
0.0639 nM	0.000247 s⁻¹	3.87e+06 M⁻¹ s⁻¹	0.0621 nM	0.000238 s⁻¹	3.83e+06 M⁻¹ s⁻¹	–	–	–	DLA0841/TR01 (bispecific antibody, V domains shown, IgG-type anti-DLL3/CD3 bispecific made by Fab arm exchange) VH 1: QEQLVESGGGLVQPEGSLTLTCTASGFSFSSSYDMCWVRQAPGKGPEWIACIYTGDGSTDYASWAKGRFTVSKASSTTVTLQMTSLAVADTATYFCARNSGYGYFGLWGPGTLVTVSS VL 1: QVLTQTPSPVSAAVGGTVTISCQSTESVYGSDWLSWYQQKPGQPPKVLIYQASNLEIGVPSRFKGSGSGTQFTLTISGAQCDDAATYYCQGYYSGYIYAFGGGTEVVVK VH 2: QVQLVESGGGVVQPGGSLRLSCAASGFTFSNAWMHWVRQAPGKGLEWVAQIKDKSQNYATYVAESVKGRFTISRADSKNSIYLQMNSLKTEDTAVYYCRYVHYAAGYGVDIWGQGTTVTVSS VL 2: DIVMTQSPLSLPVTPGEPASISCRSSQPLVHSNRNTYLHWYQQKPGQAPRLLIYKVSNRFSGVPDRFSGSGSGTDFTLKISRVEAEDVGVYYCGQGTQVPYTFGQGTKLEIK
–	–	–	–	–	–	37.3 nM	0.00266 s⁻¹	71400 M⁻¹ s⁻¹	D30316AE03/AN104 (bispecific antibody, V domains shown, IgG-type anti-DLL3/CD3 bispecific made by Fab arm exchange) VH 1: EVQLVESGGGLVQPGGSLRLSCAASGFTFSNYGVSWVRQAPGQGLEWMGYIDIAFGRTYYASWVTGRITINPDTSKNQFSLQLNSVTPEDTAVYYCARVALVVAGVAYYGMDVWGQGTLVTVSS VL 1: DIVMTQSPDSLAVSLGERATINCQASQNIYSYLSWYQQKPGKAPKLLIYRTSTLASGVPDRFSGSGSGTDFTLKISRVEAEDVGVYYCQSYYYSSGSSYGAFAFGQGTKVEIK VH 2: QVQLVESGGGLVQPGRSLRLSCAASGFTFSNAWMHWVRQAPGKGLEWVAQIKDRQNGYNTYYAESVKGRFTISRDDSKNSIYLQMNSLKTEDTAVYYCRYVHYTTTYGSYYQFGVDAWGQGTTVTVSS VL 2: DIVMTQSPLSLPVTPGEPASISCRSSQPLVHSNRNTYLHWYQQKPGQAPRLLIYKVSNRFSGVPDRFSGSGSGTDFTLKISRVEAEDVGVYYCGQGTQVPYTFGQGTKLEIK
–	–	–	–	–	–	11 nM	0.0016 s⁻¹	145000 M⁻¹ s⁻¹	D30316AE03/AN119 (bispecific antibody, V domains shown, IgG-type anti-DLL3/CD3 bispecific made by Fab arm exchange) VH 1: EVQLVESGGGLVQPGGSLRLSCAASGFTFSNYGVSWVRQAPGQGLEWMGYIDIAFGRTYYASWVTGRITINPDTSKNQFSLQLNSVTPEDTAVYYCARVALVVAGVAYYGMDVWGQGTLVTVSS VL 1: DIVMTQSPDSLAVSLGERATINCQASQNIYSYLSWYQQKPGKAPKLLIYRTSTLASGVPDRFSGSGSGTDFTLKISRVEAEDVGVYYCQSYYYSSGSSYGAFAFGQGTKVEIK VH 2: QVQLVESGGGLVQPGRSLRLSCAASGFTFSNAWMHWVRQAPGKGLEWVAQIKDKQNSYAAYYAESVKGRFTISRDDSKNSIYLQMNSLKTEDTAVYYCRYVHYTTYSGGFFSYGVDAWGQGTTVTVSS VL 2: DIVMTQSPLSLPVTPGEPASISCRSSQPLVHSNRNTYLHWYQQKPGQAPRLLIYKVSNRFSGVPDRFSGSGSGTDFTLKISRVEAEDVGVYYCGQGTQVPYTFGQGTKLEIK
